From US7125541

Experiments:
human endoglin (human) [1] = target: human endoglin (human) (UniProt P17813); test: competitive binding inhibition on HUVEC by FACS; unlabelled TEC-11 against competitor biotinylated TEC-4, ratio 1:1
human endoglin (human) [2] = target: human endoglin (human) (UniProt P17813); test: competitive binding inhibition on HUVEC by FACS; unlabelled TEC-4 against competitor biotinylated TEC-11, ratio 1:1
human endoglin (human) [3] = target: human endoglin (human) (UniProt P17813); test: competitive binding inhibition on HUVEC by FACS; unlabelled TEC-4 against competitor biotinylated TEC-11, ratio 1:100

Substance	percent blocking of biotinylated antibody (human endoglin (human) [1]) [%]	percent blocking of biotinylated antibody (human endoglin (human) [2]) [%]	percent blocking of biotinylated antibody (human endoglin (human) [3]) [%]
TEC-11 (tumor endothelial cell antibody 11)	51		
TEC-4 (tumor endothelial cell antibody 4)		1	20
